Results as given in paper PMC12608094, “STN1 Shields CTC1 From TRIM32‐Mediated Ubiquitination to Prevent Cellular Aging” (Aging Cell, 2025).

Columns and labels:
[1] = biological target: T1, Flag-tagged CTC1 (wild type) (human, UniProt Q2NKJ3 1-1217)
T1 sequence (looked up): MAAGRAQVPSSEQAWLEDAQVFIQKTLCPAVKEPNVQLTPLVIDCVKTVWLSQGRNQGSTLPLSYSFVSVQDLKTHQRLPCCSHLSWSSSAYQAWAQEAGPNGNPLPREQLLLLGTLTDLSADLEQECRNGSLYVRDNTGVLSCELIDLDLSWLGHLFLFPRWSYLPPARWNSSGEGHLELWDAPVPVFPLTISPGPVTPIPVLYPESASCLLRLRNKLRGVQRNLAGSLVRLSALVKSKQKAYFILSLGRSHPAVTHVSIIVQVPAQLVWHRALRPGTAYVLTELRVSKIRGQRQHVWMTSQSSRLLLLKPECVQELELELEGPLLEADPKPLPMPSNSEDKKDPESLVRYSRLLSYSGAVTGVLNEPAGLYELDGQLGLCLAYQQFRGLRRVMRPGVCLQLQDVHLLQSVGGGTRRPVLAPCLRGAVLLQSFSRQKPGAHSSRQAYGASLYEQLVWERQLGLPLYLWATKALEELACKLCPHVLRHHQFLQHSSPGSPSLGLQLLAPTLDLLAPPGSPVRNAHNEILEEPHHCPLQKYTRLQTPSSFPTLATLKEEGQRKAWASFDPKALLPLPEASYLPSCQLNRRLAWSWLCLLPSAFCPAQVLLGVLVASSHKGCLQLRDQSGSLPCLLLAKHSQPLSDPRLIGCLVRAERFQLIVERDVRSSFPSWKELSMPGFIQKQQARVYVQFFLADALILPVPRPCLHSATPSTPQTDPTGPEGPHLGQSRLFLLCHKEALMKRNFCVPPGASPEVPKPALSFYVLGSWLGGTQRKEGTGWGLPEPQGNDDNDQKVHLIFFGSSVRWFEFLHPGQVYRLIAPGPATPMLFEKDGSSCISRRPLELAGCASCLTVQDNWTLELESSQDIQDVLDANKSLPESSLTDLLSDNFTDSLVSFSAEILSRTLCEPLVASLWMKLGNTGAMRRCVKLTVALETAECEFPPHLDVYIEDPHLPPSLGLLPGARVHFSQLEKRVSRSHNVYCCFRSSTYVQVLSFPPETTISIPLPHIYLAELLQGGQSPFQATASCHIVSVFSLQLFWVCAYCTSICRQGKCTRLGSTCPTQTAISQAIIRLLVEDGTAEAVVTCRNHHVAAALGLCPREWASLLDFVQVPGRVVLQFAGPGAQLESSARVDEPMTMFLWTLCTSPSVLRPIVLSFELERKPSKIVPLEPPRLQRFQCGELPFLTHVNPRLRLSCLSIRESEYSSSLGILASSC

[2] = biological target: T1, Flag-tagged CTC1 (wild type); test: cell-based or functional assay

For “HA-tagged STN1 OB (N-terminal half-truncation) (domain or fragment)”, which half-life of Flag-CTC1 in HEK293T cells (CHX chase over 12 h) with HA-STN1OB [1] is on record?
Its half-life of Flag-CTC1 in HEK293T cells (CHX chase over 12 h) with HA-STN1OB is 8 h.

How did the half-life of Flag-CTC1 in HEK293T cells (CHX chase over 12 h) with HA-STN1 wHTH [1] turn out when “HA-tagged STN1 wHTH (C-terminal half-truncation) (domain or fragment)” was run?
Its half-life of Flag-CTC1 in HEK293T cells (CHX chase over 12 h) with HA-STN1 wHTH is 5 h.

B1: HA-tagged STN1 (wild type) (natural protein, human, UniProt Q9H668 1-368, looked up)
chain: MQPGSSRCEEETPSLLWGLDPVFLAFAKLYIRDILDMKESRQVPGVFLYNGHPIKQVDVLGTVIGVRERDAFYSYGVDDSTGVINCICWKKLNTESVSAAPSAARELSLTSQLKKLQETIEQKTKIEIGDTIRVRGSIRTYREEREIHATTYYKVDDPVWNIQIARMLELPTIYRKVYDQPFHSSALEKEEALSNPGALDLPSLTSLLSEKAKEFLMENRVQSFYQQELEMVESLLSLANQPVIHSASSDQVNFKKDTTSKAIHSIFKNAIQLLQEKGLVFQKDDGFDNLYYVTREDKDLHRKIHRIIQQDCQKPNHMEKGCHFLHILACARLSIRPGLSEAVLQQVLELLEDQSDIVSTMEHYYTAF
Which “half-life of Flag-CTC1 in HEK293T cells (CHX chase over 12 h) with HA-STN1 WT” value [2] does the source give for B1 here?
Its value is 10 h.
